Test results: patent US20190382504A1 (EUREKA THERAPEUTICS, published 2019)

Legend:
[1] = target: biotinylated recombinant ESO157/HLA-A*02:06 complex (human); assay: BLI (Octet QK), biotinylated pMHC on streptavidin sensor, BsAb 10 ug/mL
[2] = target: biotinylated recombinant ESO157/HLA-A*02:05 complex (human); assay: as above
[3] = target: biotinylated recombinant ESO157/HLA-A*02:11 complex (human); assay: as above
[4] = target: biotinylated recombinant ESO157/HLA-A*02:03 complex (human); assay: as above
[5] = target: biotinylated recombinant ESO157/HLA-A*02:02 complex (human); assay: as above
[6] = target: T1, biotinylated recombinant ESO157 wild type peptide/HLA-A*02:01 complex monomer (human); assay: SPR (Biacore X100), biotinylated pMHC on streptavidin chip, BsAb as analyte
T1 construct: also called recombinant ESO157/HLA-A*02:01 complex; biotin-labelled ESO157 wild type peptide/HLA-A*02:01 complex

[7] = target: biotinylated recombinant ESO157/HLA-A*02:02 complex (human); assay: BLI (Octet QK), biotinylated pMHC on streptavidin sensor, BsAb 10 ug/mL; remark: listed apart in the source
[8] = target: biotinylated recombinant ESO157/HLA-A*02:05 complex (human); assay: as above; remark: listed apart in the source
Bio-C9V mutant = target: T2, Bio-C9V mutant; assay: phage ELISA: streptavidin plate coated with biotinylated peptide/HLA-A*02:01 monomer, phage detected with HRP-conjugated anti-M13 antibody, absorbance at 450 nm
T2 construct: also called biotinylated ESO157 C9V/HLA-A*02:01 complex monomer

[9] = target: T3, HLA-A*02:01 on T2 cells without peptide loading (human); assay: FACS, peptide-pulsed T2 cells
T3 construct: TAP-deficient T2 cells, no peptide added; also called No peptide; T2 cells with no peptide loaded

[10] = target: ESO157 A6 peptide (…)/HLA-A*02:01 complex on T2 cells (human); assay: FACS, peptide-pulsed T2 cells
[11] = target: T4, ESO157 wild type peptide (…)/HLA-A*02:01 complex on cells (human); assay: FACS, peptide-pulsed T2 cells
T4 construct: also called ESO157-loaded T2 cells

[12] = target: ESO157 A4 peptide (…)/HLA-A*02:01 complex on T2 cells (human); assay: FACS, peptide-pulsed T2 cells
[13] = target: ESO157 A8 peptide (…)/HLA-A*02:01 complex on T2 cells (human); assay: FACS, peptide-pulsed T2 cells
[14] = target: ESO157 A5 peptide (…)/HLA-A*02:01 complex on T2 cells (human); assay: FACS, peptide-pulsed T2 cells
[15] = target: ESO157 A3 peptide (…)/HLA-A*02:01 complex on T2 cells (human); assay: FACS, peptide-pulsed T2 cells
[16] = target: ESO157 A1 peptide (…)/HLA-A*02:01 complex on T2 cells (human); assay: FACS, peptide-pulsed T2 cells
[17] = target: ESO157 A7 peptide (…)/HLA-A*02:01 complex on T2 cells (human); assay: FACS, peptide-pulsed T2 cells

B1: ESO157 BsAb #76 (anti-ESO157/HLA-A*02:01 scFv x anti-human CD3epsilon scFv, single chain) (bispecific antibody)
chain: QSVVTQPPSLSGAPGQRVTISCNGSGSNIGAGYDVHWYQQLPGTAPKLLIYGNSNRPSGVPDRFSGSKSGTSASLAITGLQAEDEADYYCQSYDSSLSGWGIFGGGTKLTVLGSRGGGGSGGGGSGGGGSLEMAEVQLVQSGAEVKKPGSSVKVSCKASGGTFSSYAISWVRQAPGQGLEWMGGIIPIFGTANYAQKFQGRVTITADESTSTAYMELSSLRSEDTAVYYCARYDSYVYDEWGQGTLVTVSS
Kd [1]: 126 nM | Kd [2]: 40 nM | Kd [3]: 97 nM | Kd [4]: 47 nM | Kd [5]: 34 nM

B2: ESO157 BsAb #35 (anti-ESO157/HLA-A*02:01 scFv x anti-human CD3epsilon scFv, single chain) (bispecific antibody, not shown: small tags and cut ends)
scFv: QSVVTQPPSVSAAPGQKVTISCSGSSSNIGNNYVSWYQQLPGTAPKLLIYDNNKRPSGIPDRFSGSKSGTSATLGITGLQTGDEADYYCGTWDSSLSAWVFGGGTKLTVLGSRGGGGSGGGGSGGGGSLEMAQVQLVQSGAEVKKPGSSVKVSCKASGDTFSSYSISWVRQAPGQGLEWMGRIIPILGIANYAQKYQGRVTLSADKSTSTSYMELNSLRSEDTAVYYCARDWSYSIDYWGQGTLVTVSS
notes: also called NY-ESO-1 BsAb #35
Kd [6]: 14.1 nM | koff [6]: 0.00128 s⁻¹ | kon [6]: 90900 M⁻¹ s⁻¹ | Kd [7]: 22 nM | Kd [1]: 78 nM | Kd [4]: 50 nM

B3: ESO157 BsAb #52 (anti-ESO157/HLA-A*02:01 scFv x anti-human CD3epsilon scFv, single chain) (bispecific antibody)
chain: QSVLTQPPSVSGAPGQRVTISCTGSSSNIGAGYDVHWYQQLPGTAPKLLIYGDTNRPSGVPDRISGSKSGTSASLAITGLQAEDEADYYCQSYDSNLYTYVFGTGTKVTVLGSRGGGGSGGGGSGGGGSLEMAQVQLVQSGAEVKKPGASVKVSCKASGYTFTSYGISWVRQAPGQGLEWMGWISAYNGNTNYAQKLQGRVTMTTDTSTSTAYMELRSLRSDDTAVYYCARYSGYYAGDSWGQGTLVTVSS
Kd [1]: 140 nM | Kd [2]: 26 nM | Kd [4]: 82 nM | Kd [5]: 63 nM

B4: ESO157 BsAb #148 (anti-ESO157/HLA-A*02:01 scFv x anti-human CD3epsilon scFv, single chain) (bispecific antibody, V domains shown, not shown: small tags and cut ends)
VH: EVQLVQSGAEVKKPGASVKVSCKASGGTFSSYAISWVRQAPGQGLEWMGGIIPIFGTANYAQKFQGRVTITADKSTSTAYMELSSLRSEDTAVYYCARSYWSWTPYDPWGQGTLVTVSS
VL: LPVLTQPPSVSVAPGKTARITCGGNNIGSKSVHWYQQKPGQAPVLVIYYDSDRPSGIPERFSGSNSGNTATLTISRVEAGDEADYYCQVWDSSSDHYVFGTGTKVTVL
Kd [6]: 6 nM | koff [6]: 0.000902 s⁻¹ | kon [6]: 151000 M⁻¹ s⁻¹ | Kd [7]: 19 nM | Kd [8]: 18 nM | Kd [1]: 224 nM | Kd [4]: 85 nM

B5: ESO157 BsAb #66 (anti-ESO157/HLA-A*02:01 scFv x anti-human CD3epsilon scFv, single chain) (bispecific antibody)
chain: QSVLTQPPSVSGAPGQRVTISCTGSSSNIGAGYDVHWYQQLPGTAPKLLIYGNSNRPSGVPDRFSGSKSGTSASLAITGLQAEDEADYYCQSYDSSLSGSWVFGGGTKLTVLGSRGGGGSGGGGSGGGGSLEMAEVQLVESGAEVKRPGASVKVSCKASGYTFTSYGISWVRQAPGQGLEWMGRFIPNLNKGNSAHKFEGRVSFTADKFTNTAYMELRGLKSDDTAVYYCARGDYGSDQWGQGTLVTVSS
Kd [1]: 58 nM | Kd [2]: 33 nM | Kd [3]: 48 nM | Kd [4]: 47 nM | Kd [5]: 25 nM

B6: phage clone #116, anti-ESO157/HLA-A*02:01 scFv displayed on phage (scFv, V domains shown)
VH: QVQLVQSGPEVKKPGASMKVSCKASGYTFTKYGISWVRQAPGQGLEWMGWISADSGKTSYAQNLQGRVSLTIDTSTATAYMELRSLRSDDTAVYYCARDDDSWGQGTLVTVSS
VL: QSVLTQPPSVSAAPGQKVTISCSGSSSNIGNNYVSWYQQLPGTAPKLLIYDNNKRPSGIPDRFSGSKSGTSATLGITGLQTGDEADYYCGTWDSSLSAEVFGTGTKVTVLG
binding result (Bio-C9V mutant): binds | MFI [9]: 502 | MFI [10]: 2640 | MFI [11]: 11300 | MFI [12]: 1150 | MFI [13]: 3400 | MFI [14]: 1340 | MFI [15]: 16500 | MFI [16]: 19600 | MFI [17]: 14400

B7: phage clone #66, anti-ESO157/HLA-A*02:01 scFv displayed on phage (scFv, V domains shown)
VH: EVQLVESGAEVKRPGASVKVSCKASGYTFTSYGISWVRQAPGQGLEWMGRFIPNLNKGNSAHKFEGRVSFTADKFTNTAYMELRGLKSDDTAVYYCARGDYGSDQWGQGTLVTVSS
VL: QSVLTQPPSVSGAPGQRVTISCTGSSSNIGAGYDVHWYQQLPGTAPKLLIYGNSNRPSGVPDRFSGSKSGTSASLAITGLQAEDEADYYCQSYDSSLSGSWVFGGGTKLTVLG
binding result (Bio-C9V mutant): binds | MFI [9]: 157 | MFI [10]: 19800 | MFI [11]: 67000 | MFI [12]: 48100 | MFI [13]: 90500 | MFI [14]: 748 | MFI [15]: 38400 | MFI [16]: 82400 | MFI [17]: 64400
